Test results reported in patent US20220315554A1, “COMPOUNDS COMPRISING A […] LIGAND AND USE THEREOF” (priority 2019, published 2022).
Bridge positions count the residues as written; N and C are the ends. * marks the point of attachment. tMeBn(DOTA-AET) = Cys-Cys bridge (thioethers) carrying DOTA-AET; tMeBn(DOTA-PP) = Cys-Cys bridge (thioethers) carrying DOTA-PP; Hexanoyl = CCCCCC(=O)*

T1: 5-HT3 (h) (human (printed (h))), P46098
T1 chain: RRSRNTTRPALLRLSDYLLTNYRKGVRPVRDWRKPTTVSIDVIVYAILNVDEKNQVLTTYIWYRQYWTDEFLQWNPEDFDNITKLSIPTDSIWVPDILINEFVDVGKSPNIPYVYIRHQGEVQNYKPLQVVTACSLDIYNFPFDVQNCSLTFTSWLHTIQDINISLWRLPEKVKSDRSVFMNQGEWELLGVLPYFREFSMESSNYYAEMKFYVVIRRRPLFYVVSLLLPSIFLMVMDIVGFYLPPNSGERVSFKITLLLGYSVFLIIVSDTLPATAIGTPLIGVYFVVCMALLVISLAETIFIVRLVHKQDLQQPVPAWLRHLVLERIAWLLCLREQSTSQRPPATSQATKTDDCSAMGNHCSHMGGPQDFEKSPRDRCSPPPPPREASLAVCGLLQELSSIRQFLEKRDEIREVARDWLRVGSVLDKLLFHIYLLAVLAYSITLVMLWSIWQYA

T2: CCK1 (CCKA) (h) (human (printed (h))), P32238
T2 chain: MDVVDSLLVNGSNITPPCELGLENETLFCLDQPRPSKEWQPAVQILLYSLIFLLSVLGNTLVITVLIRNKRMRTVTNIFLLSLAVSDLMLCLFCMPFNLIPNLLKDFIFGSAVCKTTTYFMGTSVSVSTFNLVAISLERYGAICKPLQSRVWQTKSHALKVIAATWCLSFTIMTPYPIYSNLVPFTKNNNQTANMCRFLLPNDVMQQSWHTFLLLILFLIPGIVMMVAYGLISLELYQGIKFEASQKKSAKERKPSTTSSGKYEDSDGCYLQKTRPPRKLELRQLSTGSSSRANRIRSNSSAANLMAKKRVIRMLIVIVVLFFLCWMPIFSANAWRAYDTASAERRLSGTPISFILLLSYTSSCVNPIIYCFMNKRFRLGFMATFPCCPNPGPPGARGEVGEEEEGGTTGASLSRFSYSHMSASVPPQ

T3: ETA (h) (human (printed (h))), P25101
T3 chain: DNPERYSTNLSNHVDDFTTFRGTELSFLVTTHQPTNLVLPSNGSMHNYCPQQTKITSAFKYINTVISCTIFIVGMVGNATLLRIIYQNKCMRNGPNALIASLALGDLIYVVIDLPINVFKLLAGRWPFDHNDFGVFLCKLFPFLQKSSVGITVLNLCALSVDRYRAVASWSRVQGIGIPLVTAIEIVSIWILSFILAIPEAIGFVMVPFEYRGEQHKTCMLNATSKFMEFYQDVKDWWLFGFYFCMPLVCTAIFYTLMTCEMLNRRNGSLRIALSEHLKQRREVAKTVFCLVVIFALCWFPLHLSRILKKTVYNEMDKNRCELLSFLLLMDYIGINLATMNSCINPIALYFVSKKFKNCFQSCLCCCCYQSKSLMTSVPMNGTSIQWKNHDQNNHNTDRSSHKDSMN

T4: alpha 2A (h) (human (printed (h))), P08913
T4 chain: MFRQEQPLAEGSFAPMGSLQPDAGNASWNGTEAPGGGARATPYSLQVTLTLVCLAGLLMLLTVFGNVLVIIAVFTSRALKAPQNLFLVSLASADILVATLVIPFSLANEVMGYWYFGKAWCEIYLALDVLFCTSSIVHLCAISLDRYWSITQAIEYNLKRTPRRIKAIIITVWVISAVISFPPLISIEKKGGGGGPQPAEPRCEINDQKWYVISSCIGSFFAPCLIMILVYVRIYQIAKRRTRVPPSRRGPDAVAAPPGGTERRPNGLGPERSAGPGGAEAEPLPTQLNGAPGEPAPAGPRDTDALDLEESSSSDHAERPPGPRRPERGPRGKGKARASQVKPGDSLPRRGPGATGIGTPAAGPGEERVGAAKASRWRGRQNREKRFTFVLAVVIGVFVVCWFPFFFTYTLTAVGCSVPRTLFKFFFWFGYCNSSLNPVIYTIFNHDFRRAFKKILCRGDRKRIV

T5: delta (DOP) (h) (human), P41143
T5 chain: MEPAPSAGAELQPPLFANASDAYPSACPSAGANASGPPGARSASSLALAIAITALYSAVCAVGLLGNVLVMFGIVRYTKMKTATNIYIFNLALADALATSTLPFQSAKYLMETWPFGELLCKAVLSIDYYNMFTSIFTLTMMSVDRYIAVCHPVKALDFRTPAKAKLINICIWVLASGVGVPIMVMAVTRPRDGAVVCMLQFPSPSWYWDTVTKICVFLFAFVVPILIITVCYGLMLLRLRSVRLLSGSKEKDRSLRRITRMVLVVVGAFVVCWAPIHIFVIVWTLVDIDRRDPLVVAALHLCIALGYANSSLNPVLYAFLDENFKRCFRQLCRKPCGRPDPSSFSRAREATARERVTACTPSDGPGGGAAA


Tests used:
Experiment in all cases: radioligand displacement, 10 uM compound
Conditions in all cases: remark: other sources report otherwise
[1] = molecular target: T1, 5-HT3 (h) (human (printed (h))), P46098
[2] = molecular target: 5-HT1B (h) (human (printed (h))), P28222
[3] = molecular target: T2, CCK1 (CCKA) (h) (human (printed (h))), …
[4] = molecular target: T3, ETA (h) (human (printed (h))), P25101
[5] = molecular target: T4, alpha 2A (h) (human (printed (h))), …
[6] = substrate: N neuronal alpha 4beta 2 (h) (human (printed (h))), P43681
[7] = molecular target: T5, delta (DOP) (h) (human), …
[8] = molecular target: H2 (h) (human (printed (h))), P25021
Sequence of H2 (h) (human (printed (h))), P25021 (P25021 whole entry): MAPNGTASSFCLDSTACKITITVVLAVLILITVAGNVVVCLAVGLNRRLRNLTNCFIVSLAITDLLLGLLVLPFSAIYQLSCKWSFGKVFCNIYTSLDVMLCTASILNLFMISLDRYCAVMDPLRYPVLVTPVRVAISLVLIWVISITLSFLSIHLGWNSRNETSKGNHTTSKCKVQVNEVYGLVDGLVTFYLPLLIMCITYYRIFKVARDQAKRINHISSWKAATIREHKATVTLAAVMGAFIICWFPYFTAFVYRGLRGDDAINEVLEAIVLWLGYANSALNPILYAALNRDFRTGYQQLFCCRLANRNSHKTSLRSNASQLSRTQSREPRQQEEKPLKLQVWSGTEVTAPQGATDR

Sequence of 5-HT1B (h) (human (printed (h))), P28222 (P28222 whole entry): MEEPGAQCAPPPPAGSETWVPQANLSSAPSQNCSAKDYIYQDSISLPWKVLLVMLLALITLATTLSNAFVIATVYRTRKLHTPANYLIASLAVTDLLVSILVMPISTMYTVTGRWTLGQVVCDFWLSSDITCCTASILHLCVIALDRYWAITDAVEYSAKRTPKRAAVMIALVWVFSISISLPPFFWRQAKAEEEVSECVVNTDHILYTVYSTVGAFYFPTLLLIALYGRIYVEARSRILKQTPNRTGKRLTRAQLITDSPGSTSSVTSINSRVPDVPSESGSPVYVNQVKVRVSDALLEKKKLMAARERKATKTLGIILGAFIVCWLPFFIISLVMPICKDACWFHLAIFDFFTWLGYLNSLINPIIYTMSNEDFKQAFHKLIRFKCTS

% Inhibition of Specific Binding [1] [%] | % Inhibition of Specific Binding [2] [%] | % Inhibition of Specific Binding [3] [%] | % Inhibition of Specific Binding [4] [%] | % Inhibition of Specific Binding [5] [%] | % Inhibition of Specific Binding [6] [%] | % Inhibition of Specific Binding [7] [%] | % Inhibition of Specific Binding [8] [%] | Binder
2 | -11 | 24 | -18 | -9 | -8 | 0 | -5 | Hexanoyl-CPPTQFCD-NH2 (linker 1-7 via tMeBn(DOTA-PP)) [Hex-[Cys(tMeBn(DOTA-PP))-Pro-Pro-Thr-Gln-Phe-Cys]-Asp-NH2 (3BP-3407)]
4 | 8 | 16 | 6 | 2 | -2 | 1 | -16 | Hexanoyl-CPPTQFC-OH (linker 1-7 via tMeBn(DOTA-AET)) [Hex-[Cys(tMeBn(DOTA-AET))-Pro-Pro-Thr-Gln-Phe-Cys]-OH (3BP-3554)]
